Data on 18 sequences can be found in the DeepSol protein solubility set.

The nature of this series: soluble on expression in E. coli; label from the status in PepcDB or PDB records.
Take “MDSDLYDEFGNYIGPELDSDDDAGDIDDNGDDEDRSDVDEDDEPDRMEEDDAEEIPQNQVVLHEDKKYYATALEVYGEGVETLVQEEDAQPLTEPIVKPVSKKKFQAAERFLPETVYKKEYLADLMDCPHIMRNVAIAGHLHHGKTTFLDCLMEQTHPEFYRAEDADARFTDILFIEKQRGCSIKSQPVSIVAQDSRSKSYLLNIIDTPGHVNFSDEMTASYRLADGVVVMVDAHEGVMMNTERAIRHAIQERLAVTLCISKIDRLLLELKLPPADAYFKLRLIIDQVNNILSTFAEEDVPVLSPLNGNVIFSSGRYNVCFSLLSFSNIYAKQHGDSFNSKEFARRLWGDIYFEKKTRKFVKKSPSHDAPRTFVQFILEPMYKIFSQVVGDVDTCLPDVMAELGIRLSKEEQKMNVRPLIALICKRFFGDFSAFVDLVVQNIKSPLENAKTKIEQTYLGPADSQLAQEMQKCNAEGPLMVHTTKNYPVDDATQFHVFGRVMSGTLEANTDVRVLGENYSIQDEEDCRRMTVGRLFVRVASYQIEVSRVPAGCWVLIEGIDQPIVKTATIAELGYEEDVYIFRPLKFNTRSCVKLAVEPINPSELPKMLDGLRKVNKSYPLLTTRVEESGEHVLLGTGEFYMDCVMHDMRKVFSEIDIKVADPVVTFNETVIETSTLKCFAETPNKKNKITMMAEPLEKQLDEDIENEVVQIGWNRRRLGEFFQTKYNWDLLAARSIWAFGPDTTGPNILLDDTLPSEVDKHLLSTVRESLVQGFQWATREGPLCEEPIRQVKFKLLDAAIATEPLYRGGGQMIPTARRCAYSAFLMATPRLMEPYYTVEVVAPADCVAAVYTVLAKRRGHVTTDAPMPGSPMYTISAYIPVMDSFGFETDLRIHTQGQAFCMSAFHHWQLVPGDPLDKSIVIKTLDVQPTPHLAREFMIKTRRRKGLSEDVSVNKFFDDPMLLELAKQQDYTGF”: the “soluble on expression in E. coli” value is given as “soluble”.

As for “MDSKEVLVHVKNLEKNKSNDAAVLEILHVLDKEFVPTEKLLRETKVGVEVNKFKKSTNVEISKLVKKMISSWKDAINKNKRSRQAQQHHQDHAPGNAEDKTTVGESVNGVQ”, the “soluble on expression in E. coli” value is on record as “soluble”.

As to “MDSSQVPNPVLVLVGSPRRDGNSALLAQAVAEGARQSGAAATLLFLDDYIAGFLTDEKEADARRPDDRYGELFFDHFLPARAVVLCTPVYWYGMSAQAKAFFDRSFTYYSASHPRHAEVLRRMTGKRLALAVSSEETYPGAALGIVHQLQEFTRYTHSQFVGMVHGAGNRRGEVAHDPRRPLQAAHRLGHDLLSLPYSDYRIDSPRDHQVWPGAPA”, the “soluble on expression in E. coli” value is recorded as “not soluble”.

For “MDTEKLMKAGEIAKKVREKAIKLARPGMLLLELAESIEKMIMELGGKPAFPVNLSINEIAAHYTPYKGDTTVLKEGDYLKIDVGVHIDGFIADTAVTVRVGMEEDELMEAAKEALNAAISVARAGVEIKELGKAIENEIRKRGFKPIVNLSGHKIERYKLHAGISIPNIYRPHDNYVLKEGDVFAIEPFATIGAGQVIEVPPTLIYMYVRDVPVRVAQARFLLAKIKREYGTLPFAYRWLQNDMPEGQLKLALKTLEKAGAIYGYPVLKEIRNGIVAQFEHTIIVEKDSVIVTQDMINKST”, the “soluble on expression in E. coli” value is reported as “soluble”.

Take “MDTKHPPDPSGPSDPNINLGEFEDPVDGYADDDLLTPDDLSVSVTGMTPSRSFLETEEFETELGGVEPFEDLFNDISAHEIIQVIADGDRVGRPIVVVYAYRLPSSKEIDHARLLQYLVQIIDKIVDQDYTIVYFHYGLRSHNKPPVRWLFQAYKQLDRRFKKNLKALYVVHPTRFIRIIFSLFKGFISSKFENKFHYVMCIDELENALSVARLNLPSPIRDHDKSFSTQSNRPETPPAQPLPTQQFGVPLEFILSHCGGNIPPIVDQLIEYLEAHALTMEGVFRKSANIGSIKRLQDRINKGEKIDFENDPEYKDNEYVASLHASVLLKTFFRSLGEPLTTNRLYPKLAALSEVSKTEKSAAVKEFVKLLPRENYILLKTVIKFLTRVAENSKVNLMTANNLSVVFGPNLTWPTDQEVPISQLNNLNNFCYKLIVDYDSVFDH”: the “soluble on expression in E. coli” value is recorded as “not soluble”.

As to “MDTPNKDDSIIRFSVSLQQNLLDELDNRIIKNGYSSRSELVRDMIREKLVEDNWAEDNPNDESKIAVLVVIYDGGQRELNQRMIDIQHASGTHVLCTTHIHMDEHNCLETIILQGNSFEIQRLQLEIGGLRGVKFAKLTKASSFEYNE”, the “soluble on expression in E. coli” value is reported as “soluble”.

Consider “MDTQQLINAITPEAYQRLLYAVETGKWPEGTPLSQQQRDSCMQAVMLYQSKHNTQADHMSVGVGGEVVFKSKAELKKRFSEGEEDILRVNPNQEA”, for which the “soluble on expression in E. coli” value is “not soluble”.

In the case of “MDTRDGNEKTRDAILDAAVMHVPFDGWSETTLRAAIRDSGVAPGLARALFPRGGVDLALAYHRRGDERMLEKAAAADLGALRYSERVAALIRFRLEAVEDKELVRRGSTLFSLPQHAGDGARALWGTADRIWTALGDSSRDLNWYTKRATLSAVYAATVLYWLGDDTPGHYATWEFLDRRIADVLRFEKMKTEAQRNPLLRAVTAGPRMVMRRVHAPAPPADVPGRSSRFLEHHHHHH”, the “soluble on expression in E. coli” value is on record as “soluble”.

Regarding “MDTTKTIAALFDFDGVIMDTETQYTVFWDEQGRKYLNEEDFGRRIKGQTLTQIYEKYFSDLPEAQQEITAGLNIYEKSMSYEYIPGVEAFIADLRKHGAKIAVVTSSNEEKMQNVYNAHPEFKGMVDRILTGEMFARSKPAPDCFLLGMEIFGATPENSYVFEDSFHGLQAGMTSGATVIGLATTNTREAITGKAHYIIDDFSEMTFEHLLALHR”, the “soluble on expression in E. coli” value is reported as “not soluble”.

For “MDVENEQILNVNPADPDNLSDSLFSGDEENAGTEEVKNEINGNWISAYSINEARINAKAKRRLRKNSSRDSGRGDSVSDSGSDALRSGLTVPTSPKGRLLDRRSRSGKGRGLPKKGGAGGKGVWGTPGQVYDVEEVDVKDPNYDDDQENCVYETVVLPLDERAFEKTLTPIIQEYFEHGDTNEVAEMLRDLNLGEMKSGVPVLAVSLALEGKASHREMTSKLLSDLCGTVMSTTDVEKSFDKLLKDLPELALDTPRAPQLVGQFIARAVGDGILCNTYIDSYKGTVDCVQARAALDKATVLLSMSKGGKRKDSVWGSGGGQQSVNHLVKEIDMLLKEYLLSGDISEAEHCLKELEVPHFHHELVYEAIIMVLESTGESTFKMILDLLKSLWKSSTITVDQMKRGYERIYNEIPDINLDVPHSYSVLERFVEECFQAGIISKQLRDLCPSRGRKRFVSEGDGGRLKPESY”, the “soluble on expression in E. coli” value was “soluble”.

Take “MDVIPLSLGLETMGGLVEKVIPRNTTIPVARAQDFTTFKDGQTAMSIHVMQGERELVQDCRSLARFALRGIPALPAGGAHIRVTFQVDADGLLSVTAMEKSTGVEASIQVKPSYGLTDSEIASMIKDSMSYAEQDVKARMLAEQKVEAARVLESLHGALAADAALLSAAERQVIDDAAAHLSEVAQGDDVDAIEQAIKNVDKQTQDFAARRMDQSVRRALKGHSVDE”: the “soluble on expression in E. coli” value was “soluble”.

With “MDVLNAANDLLPLLPEVQDALSEDFDGVECSMGAGVVLEQAPFRMAFPHMGRQVTFVPDTSCLEEFDGAKLHRINLGPKSAVFTDGEPGCCMELILGAGKDWKTPLVKLFSRVYPNKWAFFITELESGQATYHILSSSHGMLSSARREDTPDSTEQSSMVSSPTASVSDATNYSLWIVPVTKVFAIPAPKKVKVVRKVIKKRTPVDGSTNGTNGTSVVNGNGTMNGHVSPEDGERKVRLVKKKPPTEKLESSTEREISPLNDLPKPEFSTIASSESMKTVINGKSEREEAGPSNDSSDGGSASELRKKLTEKIMEQKFMVNGEQRALNGNASSRGLGRSISRSSMTPDRRLDPILEDGSKQRQAIASAISVNRPSITRNSATPPMTPHSKLALEMLFKLDKLWKYFKFIYSKCRYTFIQFFNSTFSNTKIYSVEIMDAEVIKVLVSHPSKPNIPVMVLQLVLTKCLNYEHLGRLREVHPHWDEIAGQLLNSGYYKLLERSDKLLMTLQRKVVSDPGLHYATSVLTNIQMHILNPVDIMRAVLDEGVCCFPYGVILDKTFILLDKVEAMLHGSYEEDVHWEPVAKLAKKAASHYRGNLERVMEERMGENLRLKAAQRIIRLESFVVDAQVAKLEKESNKAKEDVRWEIDQLHQKNSQLRKDNREMKANQMRLEARVEALEQKFKTLARLLS”, the “soluble on expression in E. coli” value is “not soluble”.

As for “MDVQQRLGGLLEITESRICLHCLGRHFVDLVEGPGNRLRGEKLQKKFSLKLSGPCMICGDVFDRIDEAAGMVKEKVDELGLEYSSVLVGTRLPPKMVELDDEIRKRLGIQTEGLKRDLNRELGKRVVKLLGCSAEFEDPDLVVMVDFRGDIRVWIQINPLFLEGRYRKLVRGIPQTRWPCRKCRGRGCERCNYTGKMYPTSVEELIAGPILEASQGRDARFHGSGREDVDVRMLGTGRPFVLEIREPRVRNLDPESLEEEVNRRAQGMVEVEGLRFSTRKRKVELKDSSQSRYKVYRALVELDGDVTDEDLERLGSLDIIKQRTPVRVSHRRADRVRERRVLEISWNLLDGCLELIIKGEGGLYIKELISGDSGRTEPSVSSVLGVPARCVALDVLEVGDEPSEKDLEHHHHHH”, the “soluble on expression in E. coli” value is given as “soluble”.

With “MDYFNIFAYGELMKDEILFELINRVPEKNLGKIYNFEKFFDEKIGYYGIKPKENSSISGIILFNINSTELEIFDDYEDEGTYYSKNKTICYDLNGKGYESYVYVRLELEHHHHHH”, the “soluble on expression in E. coli” value was “not soluble”.

For the sequence “MDYILGRYVKIARYGSGGLVGGGGKEQYVENLVLWENIIKTAYCFITPSSYTAALETANIPEKDFSNCFRFLKENFFIIPGEYNNSTENNRYSRNFLHYQSYGANPVLVQDKLKNAKVVILGCGGIGNHVSVILATSGIGEIILIDNDQIENTNLTRQVLFSEDDVGKNKTEVIKRELLKRNSEISVSEIALNINDYTDLHKVPEADIWVVSADHPFNLINWVNKYCVRANQPYINAGYVNDIAVFGPLYVPGKTGCYECQKVVADLYGSEKENIDHKIKLINSRFKPATFAPVNNVAAALCAADVIKFIGKYSEPLSLNKRIGIWSDEIKIHSQNMGRSPVCSVCGNRMLEHHHHHH”, the “soluble on expression in E. coli” value is listed as “soluble”.

On to “MDYKSKTANDKEISIYYFSATGNSLKLSQDIAAAFGGAGLFRMTPSAGITASDSRIVGFIFPVYMGGLPGIVRRFLESYPFRKGVYYFSIGTYYTYKGCAVSVVDKIMSGKGVRLDYGYNLPTVGNCLKEYEVSSVRRTKILERAELYTSRIIDDLKKGKRKKPFPYCRLSDLLHKGLFNAFFSRSHLNFSLENGCMGCGVCERVCPVNNITLKNGVPRWGTGCEACHACVHWCPRNVIQIGKSKGRLQYHHPAVKRTMLYRVELEHHHHHH”, for which the “soluble on expression in E. coli” value is given as “not soluble”.

As to “MDYTIENNMIKVVISDHGAEIQSVKSAHTDEEFMWQANPEIWGRHAPVLFPIVGRLKNDEYTYKGKTYHLGQHGFARNADFEVENHTKESITFLLKDNEETRKVYPFKFEFRVNYNLMNNLLEENFSVVNKSDETMIFGVGGHPGFNLPTDHGENKEDFYFDMHPSVTRVRIPLKDASLDWNNRSLAPTDSLIALSDDLFKDDALIYELRGNDNKVSLRTDKNKFHVNVWTRDAPFVGIWSQYPKTDNYVCIEPWWGIADRDDADGDLEHKYGMNHLKPGKEFQAGFSMTYHSTTDEVKLEHHHHHH”, the “soluble on expression in E. coli” value is on record as “soluble”.

Consider “MEAAASEPSLDLDNLKLLELIGRGRYGAVYKGSLDERPVAVKVFSFANRQNFINEKNIYRVPLMEHDNIARFIVGDERVTADGRMEYLLVMEYYPNGSLCKYLSLHTSDWVSSCRLAHSVTRGLAYLHTELPRGDHYKPAISHRDLNSRNVLVKNDGTCVISDFGLSMRLTGNRLVRPGEEDNAAISEVGTIRYMAPEVLEGAVNLRDCESALKQVDMYALGLIYWEIFMRCTDLFPGESVPEYQMAFQTEVGNHPTFEDMQVLVSREKQRPKFPEAWKENSLAVRSLKETIEDCWDQDAEARLTAQCAEERMAELMMIWERNKSVSPTAHHHHHH”, for which the “soluble on expression in E. coli” value was “soluble”.
